The text below walks through data of patent publication US20130336893A1 (Sanofi, published 2013).

The target of one assay is human glucagon receptor (human, UniProt P47871 26-477). As to the kind of experiment: cell-based or functional assay.
For a further assay, the target named is human GLP-1 receptor (human, UniProt P43220 24-463). The assay is described as follows: cell-based or functional assay.

*1 amine or outer side, *2 acyl side, *3 side chain or, on linkers, in order; H or OH if unused. Where no end group is shown, it is not given here. Side-chain parts run from the residue outwards. [ ]: non-standard residue; d: D form. The star is where a group is joined. γGlu = O=C(O)[C@H](CCC(=O)[*:2])N[*:1]; Palmitoyl = CCCCCCCCCCCCCCCC(=O)*; βAla = NCCC(=O)O

Sequence of human glucagon receptor (P47871 26-477): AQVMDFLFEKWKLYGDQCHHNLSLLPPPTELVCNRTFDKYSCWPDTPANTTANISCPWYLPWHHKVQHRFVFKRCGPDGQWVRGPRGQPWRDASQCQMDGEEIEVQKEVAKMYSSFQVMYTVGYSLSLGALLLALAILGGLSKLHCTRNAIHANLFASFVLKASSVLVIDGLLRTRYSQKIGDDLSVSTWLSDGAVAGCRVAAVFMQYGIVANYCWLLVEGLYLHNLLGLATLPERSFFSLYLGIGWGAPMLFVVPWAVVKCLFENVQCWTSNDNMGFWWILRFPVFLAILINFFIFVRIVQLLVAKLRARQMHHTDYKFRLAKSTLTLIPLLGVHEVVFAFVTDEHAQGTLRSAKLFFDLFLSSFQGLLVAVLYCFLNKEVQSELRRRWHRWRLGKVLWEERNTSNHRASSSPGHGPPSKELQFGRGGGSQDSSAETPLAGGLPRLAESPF

B1: SEQ ID NO: (97) (peptide)
peptide: H[dS]QGTFTSDLSKQMESRRAQDFIEWLKSGGPSSGAPPPSK([γGlu-γGlu-Palmitoyl])-NH2
On to B1, for which, in the assay with human glucagon receptor, the “EC50 hGlucagonR (cAMP formation)” value turned out to be 0.0363 nM. Also, the “EC50 hGLP-1R (cAMP formation)” value in the assay with human GLP-1 receptor amounted to 0.0047 nM.

B2: SEQ ID NO: (92) (peptide)
peptide: H[dS]QGTFTSDLSKQMESRRAQDFIEWLKEGGPSSGRPPPSK([γGlu-Palmitoyl])-NH2
modifications: N-terminus assumed
SMILES: CCCCCCCCCCCCCCCC(=O)N[C@@H](CCC(=O)NCCCC[C@H](NC(=O)[C@H](CO)NC(=O)[C@@H]1CCCN1C(=O)[C@@H]1CCCN1C(=O)[C@@H]1CCCN1C(=O)[C@H](CCCNC(=N)N)NC(=O)CNC(=O)[C@H](CO)NC(=O)[C@H](CO)NC(=O)[C@@H]1CCCN1C(=O)CNC(=O)CNC(=O)[C@H](CCC(=O)O)NC(=O)[C@H](CCCCN)NC(=O)[C@H](CC(C)C)NC(=O)[C@H](Cc1c[nH]c2ccccc12)NC(=O)[C@H](CCC(=O)O)NC(=O)[C@@H](NC(=O)[C@H](Cc1ccccc1)NC(=O)[C@H](CC(=O)O)NC(=O)[C@H](CCC(N)=O)NC(=O)[C@H](C)NC(=O)[C@H](CCCNC(=N)N)NC(=O)[C@H](CCCNC(=N)N)NC(=O)[C@H](CO)NC(=O)[C@H](CCC(=O)O)NC(=O)[C@H](CCSC)NC(=O)[C@H](CCC(N)=O)NC(=O)[C@H](CCCCN)NC(=O)[C@H](CO)NC(=O)[C@H](CC(C)C)NC(=O)[C@H](CC(=O)O)NC(=O)[C@H](CO)NC(=O)[C@@H](NC(=O)[C@H](Cc1ccccc1)NC(=O)[C@@H](NC(=O)CNC(=O)[C@H](CCC(N)=O)NC(=O)[C@@H](CO)NC(=O)[C@@H](N)Cc1c[nH]cn1)[C@@H](C)O)[C@@H](C)O)[C@@H](C)CC)C(N)=O)C(=O)O
In the case of B2, in the assay with human glucagon receptor, the “EC50 hGlucagonR (cAMP formation)” value amounted to 0.038 nM. The “EC50 hGLP-1R (cAMP formation)” value with human GLP-1 receptor worked out at 0.006 nM.

B3: SEQ ID NO: (93) (peptide)
peptide: H[dS]QGTFTSDLSKQMESRRAQDFIEWLKSGGPSSGAPPPSK([γGlu-aleuritolyl])-NH2
Take B3: the “EC50 hGlucagonR (cAMP formation)” value in the assay with human glucagon receptor was determined as 1.87 nM. Moreover, the “EC50 hGLP-1R (cAMP formation)” value with human GLP-1 receptor came out at 0.188 nM.

B4: SEQ ID NO: (98) (peptide)
peptide: H[dS]QGTFTSDLSKQMESRRAQDFIEWLKSGGPSSGAPPPSK([βAla-βAla-Palmitoyl])-NH2
modifications: N-terminus assumed
SMILES: CCCCCCCCCCCCCCCC(=O)NCCC(=O)NCCC(=O)NCCCC[C@H](NC(=O)[C@H](CO)NC(=O)[C@@H]1CCCN1C(=O)[C@@H]1CCCN1C(=O)[C@@H]1CCCN1C(=O)[C@H](C)NC(=O)CNC(=O)[C@H](CO)NC(=O)[C@H](CO)NC(=O)[C@@H]1CCCN1C(=O)CNC(=O)CNC(=O)[C@H](CO)NC(=O)[C@H](CCCCN)NC(=O)[C@H](CC(C)C)NC(=O)[C@H](Cc1c[nH]c2ccccc12)NC(=O)[C@H](CCC(=O)O)NC(=O)[C@@H](NC(=O)[C@H](Cc1ccccc1)NC(=O)[C@H](CC(=O)O)NC(=O)[C@H](CCC(N)=O)NC(=O)[C@H](C)NC(=O)[C@H](CCCNC(=N)N)NC(=O)[C@H](CCCNC(=N)N)NC(=O)[C@H](CO)NC(=O)[C@H](CCC(=O)O)NC(=O)[C@H](CCSC)NC(=O)[C@H](CCC(N)=O)NC(=O)[C@H](CCCCN)NC(=O)[C@H](CO)NC(=O)[C@H](CC(C)C)NC(=O)[C@H](CC(=O)O)NC(=O)[C@H](CO)NC(=O)[C@@H](NC(=O)[C@H](Cc1ccccc1)NC(=O)[C@@H](NC(=O)CNC(=O)[C@H](CCC(N)=O)NC(=O)[C@@H](CO)NC(=O)[C@@H](N)Cc1c[nH]cn1)[C@@H](C)O)[C@@H](C)O)[C@@H](C)CC)C(N)=O
Consider B4, for which, in the assay with human glucagon receptor, the “EC50 hGlucagonR (cAMP formation)” value worked out at 0.0146 nM. The “EC50 hGLP-1R (cAMP formation)” value with human GLP-1 receptor is 0.0051 nM.
